Source: patent US20220281936A1
One block for each binder: values may come before it.

Biological target: IL12 receptor on pre-activated mouse CD8+ T cells (mouse) (UniProt Q60837)
Assay: cell-based or functional assay

- EC50 of STAT4 phosphorylation in pre-activated mouse CD8+ T cells (flow cytometry): 0.0163 nM
B1: Mouse IL12 (unmodified) (ligand)
chain 1: RVIPVSGPARCLSQSRNLLKTTDDMVKTAREKLKHYSCTAEDIDHEDITRDQTSTLKTCLPLELHKNESCLATRETSSTTRGSCLPPQKTSLMMTLCLGSIYEDLKMYQTEFQAINAALQNHNHQQIILDKGMLVAIDELMQSLNHNGETLRQKPPVGEADPYRVKMKLCILLHAFSTRVVTINRVMGYLSSA
chain 2: MWELEKDVYVVEVDWTPDAPGETVNLTCDTPEEDDITWTSDQRHGVIGSGKTLTITVKEFLDAGQYTCHKGGETLSHSHLLLHKKENGIWSTEILKNFKNKTFLKCEAPNYSGRFTCSWLVQRNMDLKFNIKSSSSSPDSRAVTCGMASLSAEKVTLDQRDYEKYSVSCQEDVTCPTAEETLPIELALEARQQNKYENYSTSFFIRDIIKPDPPKNLQMKPLKNSQVEVSWEYPDSWSTPHSYFSLKFFVRIQRKKEKMKETEEGCNQKGAFLVEKTSTEVQCKGGNVCVQAQDRYYNSSCSKWACVPCRVRS

- EC50 of STAT4 phosphorylation in pre-activated mouse CD8+ T cells, fold against unmodified IL12: 80 fold
- fold decrease in STAT4 phosphorylation in pre-activated mouse CD8+ T cells, noncleaved construct against IL12 (FIG. 3C): 80 fold
B2: IL12Rβ1-VP-IL12 (protein, part only; not given: IL12Rβ1 mask domains and linker, part only)
chain, part: VPLSLYSRVIPVSGPARCLSQSRNLLKTTDDMVKTAREKLKHYSCTAEDIDHEDITRDQTSTLKTCLPLELHKNESCLATRETSSTTRGSCLPPQKTSLMMTLCLGSIYEDLKMYQTEFQAINAALQNHNHQQIILDKGMLVAIDELMQSLNHNGETLRQKPPVGEADPYRVKMKLCILLHAFSTRVVTINRVMGYLSSA
chain: B1 chain 2

- EC50 of STAT4 phosphorylation in pre-activated mouse CD8+ T cells, fold against unmodified IL12: 80 fold
- fold decrease in STAT4 phosphorylation in pre-activated mouse CD8+ T cells, noncleaved construct against IL12 (FIG. 3C): 80 fold
B3: IL12Rβ1-LS-IL12 (protein)
chain 1: QLGASGPGDGCCVEKTSFPEGASGSPLGPRNLSCYRVSKTDYECSWQYDGPEDNVSHVLWCCFVPPNHTHTGQERCRYFSSGPDRTVQFWEQDGIPVLSKVNFWVESRLGNRTMKSQKISQYLYNWTKTTPPLGHIKVSQSHRQLRMDWNVSEEAGAEVQFRRRMPTTNWTLGDCGPQVNSGSGVLGDIRGSMSESCLCPSENMAQEIQIRRRRRLSSGAPGGPWSDWSMPVCVPPEVLPQAGLLSGRSDNHGGGSGGGSRVIPVSGPARCLSQSRNLLKTTDDMVKTAREKLKHYSCTAEDIDHEDITRDQTSTLKTCLPLELHKNESCLATRETSSTTRGSCLPPQKTSLMMTLCLGSIYEDLKMYQTEFQAINAALQNHNHQQIILDKGMLVAIDELMQSLNHNGETLRQKPPVGEADPYRVKMKLCILLHAFSTRVVTINRVMGYLSSAHHHHHH
chain 2: B1 chain 2
